Reference: the supplement of paper PMC7877785
± gives the uncertainty stated by the source.

Assay: self-splicing fitness, log relative to wild type (ln ratio); higher = more splicing; Tetrahymena group I intron in knt gene, E. coli kanamycin selection, DiMSum; sequences stand for … in CUCUCU…GGAGGGAAAAGUUAUCAGGCAUGCACCUGGUAGCUAGUCUUUAAACCAAUAGAUUGCAUCGGUUUAAAAGGCAAGACCGUCAAAUUGCGGGAAAGGGGUCAACAGCCGUUCAGUACCAAGUCUCAGGGGAAACUUUGAGAUGGCCUUGCAAAGGGUAUGGUAAUAAGCUGACGGACAUGGUCCUAACCACGCAGCCAAGUCCUAAGUCAACAGAUCUUCUGUUGAUAUGGAUGCAGUUCACAGACUAAAUGUCGGUCGGGGAAGAUGUAUUCUUCUCAUAAGAUAUAGUCGGACCUCUCCUUAAUGGGAGCUAGCGGAUGAAGUGAUGCAACACUGGAGCCGCUGGGAACUAAUUUGUAUGCGAAAGUAUAUUGAUUAGUUUUGGAGUACUCGUGGUCG
How it was run: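 Library with all eight P1ex-region intron nucleotides randomised, intron inside the knt kanamycin-resistance gene on pET-22b(+), in E. coli BL21(DE3). Cells grew overnight at 37°C or 30°C on LB agar with or without 25 μg/mL kanamycin (plus 100 μg/mL carbenicillin, 50 μM IPTG, 0.2% rhamnose), in six replicate transformations. Pooled colonies were amplicon-sequenced on Illumina HiSeq 2500. DiMSum fitness is the error-weighted combination of wild-type-normalised replicate fold changes, kanamycin versus none.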

Sequence	self-splicing fitness (ln) (30 °C)	self-splicing fitness (ln) (37 °C)
AUAAAGCAAUAUUACGCGAA	-1.19 ± 0.088	-0.188 ± 0.1
AGACAGCAAUAUUACGAGAA	-2.15 ± 0.37	-2.43 ± 0.31
GUCAAGCAAUAUUACGGAAU	-2.07 ± 0.12	-1.09 ± 0.12
UCAGAGCAAUAUUACGGUUA	-2.88 ± 0.26	-2.05 ± 0.22
UGACAGCAAUAUUACGGUCA	-2.97 ± 0.28	-0.408 ± 0.17
GCGCAGCAAUAUUACGGGGA	-2.23 ± 0.14	-0.687 ± 0.11
AGCGAGCAAUAUUACGGGGG	-2.6 ± 0.33	-2.04 ± 0.41
AUCGAGCAAUAUUACGAUUC	-2.98 ± 0.34	–
AUUGAGCAAUAUUACGGGGA	-2.32 ± 0.24	-2.49 ± 0.28
CACCAGCAAUAUUACGUGAG	-3.8 ± 0.16	-2.26 ± 0.14
ACUCAGCAAUAUUACGUCCG	-2.16 ± 0.14	-1.21 ± 0.15
CCCCAGCAAUAUUACGUCGA	-4.09 ± 0.23	-2.27 ± 0.15
GCGCAGCAAUAUUACGUUGG	-1.81 ± 0.06	-1.76 ± 0.097
CAUUAGCAAUAUUACGCCGG	-0.963 ± 0.15	0.612 ± 0.24
UCCCAGCAAUAUUACGAUCC	-1.93 ± 0.41	-1.58 ± 0.46
UGUUAGCAAUAUUACGACGA	-0.147 ± 0.12	0.253 ± 0.15
UAAAAGCAAUAUUACGACCU	-0.4 ± 0.085	0.0792 ± 0.098
UUAGAGCAAUAUUACGGGAU	-3.45 ± 0.39	-2.97 ± 0.4
GGUGAGCAAUAUUACGAUCA	-1.24 ± 0.13	-0.356 ± 0.15
CAAAAGCAAUAUUACGUUGC	-3.74 ± 0.18	-3.17 ± 0.23
UAUGAGCAAUAUUACGUACU	-4.19 ± 0.42	-1.09 ± 0.41
GUAAAGCAAUAUUACGAAAC	-1.83 ± 0.13	-0.6 ± 0.13
CAUUAGCAAUAUUACGGGUA	-1.06 ± 0.11	-0.972 ± 0.13
UUCAAGCAAUAUUACGAUUG	-3.63 ± 0.35	-2.24 ± 0.27
UGGAAGCAAUAUUACGACGC	-1.66 ± 0.22	-1.05 ± 0.28
GCUAAGCAAUAUUACGGAGC	–	-2.4 ± 0.34

Sequence	self-splicing fitness (ln) (30 °C)	self-splicing fitness (ln) (37 °C)
UCUGAGCAAUAUUACGAGUA	-2.16 ± 0.16	-2.17 ± 0.26
AUUGAGCAAUAUUACGCAUG	-4 ± 0.32	-0.903 ± 0.26
AGGCAGCAAUAUUACGUGGC	-2.88 ± 0.2	-2.58 ± 0.22
GGUGAGCAAUAUUACGAUAU	-2.31 ± 0.2	-1.83 ± 0.23
UCUGAGCAAUAUUACGGCUU	-2.02 ± 0.32	-2.34 ± 0.32
GGGAAGCAAUAUUACGAAUU	-0.943 ± 0.23	-0.115 ± 0.21
AGACAGCAAUAUUACGCCUG	-1.88 ± 0.12	0.171 ± 0.11
CUCGAGCAAUAUUACGUUUC	-1.78 ± 0.29	-1.25 ± 0.25
UGGCAGCAAUAUUACGUAAA	-0.723 ± 0.077	-0.922 ± 0.093
CUUAAGCAAUAUUACGUCAG	-0.948 ± 0.084	-0.564 ± 0.1
GAAAAGCAAUAUUACGGACC	-0.128 ± 0.094	-0.398 ± 0.15
GCGCAGCAAUAUUACGUCAA	-2.46 ± 0.14	-0.0917 ± 0.1
UCCCAGCAAUAUUACGCACU	-1.64 ± 0.12	-1.04 ± 0.14
UGUUAGCAAUAUUACGAGCU	-0.427 ± 0.16	0.455 ± 0.19
AUUUAGCAAUAUUACGGGUC	–	-2.23 ± 0.34
UAGUAGCAAUAUUACGGAGU	-4.27 ± 0.28	-2.62 ± 0.16
CACGAGCAAUAUUACGAGUC	–	-1.63 ± 0.29
AGUAAGCAAUAUUACGCCGG	-2.45 ± 0.39	-1.99 ± 0.34
AUGAAGCAAUAUUACGCCUC	-0.0224 ± 0.2	-1.19 ± 0.33
GCUGAGCAAUAUUACGAUGA	-1.11 ± 0.13	-1.07 ± 0.15
CCAAAGCAAUAUUACGCCGA	-2.83 ± 0.18	-3.4 ± 0.23
CCCGAGCAAUAUUACGCUCU	–	-2.7 ± 0.29
GCACAGCAAUAUUACGAGUG	-4.09 ± 0.26	-2.64 ± 0.17
CGCCAGCAAUAUUACGCGAU	-3.87 ± 0.2	-2.22 ± 0.17
AGAUAGCAAUAUUACGAAAC	-3.23 ± 0.37	–
GUAUAGCAAUAUUACGACCU	-1.21 ± 0.18	-0.345 ± 0.18

Sequence	self-splicing fitness (ln) (30 °C)	self-splicing fitness (ln) (37 °C)
GCUAAGCAAUAUUACGACAC	-0.804 ± 0.074	0.369 ± 0.11
CGGAAGCAAUAUUACGUCAA	–	-3.55 ± 0.42
AUCAAGCAAUAUUACGUUGU	-3.46 ± 0.17	-1.92 ± 0.12
ACAUAGCAAUAUUACGGUCG	-1.62 ± 0.088	-0.223 ± 0.1
CUAAAGCAAUAUUACGACAG	0.277 ± 0.093	0.751 ± 0.12
GCUCAGCAAUAUUACGGUCG	-2.35 ± 0.14	-0.924 ± 0.14
CCCUAGCAAUAUUACGAGCG	-2.86 ± 0.21	-1.13 ± 0.19
UAUCAGCAAUAUUACGCACU	-0.0365 ± 0.087	0.104 ± 0.094
AUCUAGCAAUAUUACGGCUG	-1.21 ± 0.14	0.594 ± 0.18
AGGAAGCAAUAUUACGUCCG	-0.623 ± 0.16	0.408 ± 0.2
AUGUAGCAAUAUUACGUGCG	-1.8 ± 0.09	-0.122 ± 0.097
GCUUAGCAAUAUUACGUGCA	-1.11 ± 0.11	-0.319 ± 0.13
UUUGAGCAAUAUUACGCGGG	-2.66 ± 0.24	-1.45 ± 0.21
UACCAGCAAUAUUACGUAGA	-1.27 ± 0.072	-0.78 ± 0.091
ACUGAGCAAUAUUACGGACG	-2.2 ± 0.13	-1.9 ± 0.2
GUGGAGCAAUAUUACGCACG	-2.63 ± 0.29	-2.32 ± 0.25
GGCUAGCAAUAUUACGUGCC	-2.22 ± 0.25	–
GCCCAGCAAUAUUACGCGUG	-3.68 ± 0.13	-2.41 ± 0.12
GUUAAGCAAUAUUACGUGCG	-0.344 ± 0.12	-1.15 ± 0.12
UCUUAGCAAUAUUACGCUUU	–	-2.47 ± 0.32
CAUCAGCAAUAUUACGAGCC	-3.22 ± 0.31	-2.33 ± 0.41
UACUAGCAAUAUUACGCAAC	-2.26 ± 0.26	-1.85 ± 0.34
CUCUAGCAAUAUUACGAGAU	-3.29 ± 0.43	-2.94 ± 0.31
GCUCAGCAAUAUUACGCAAC	-1.28 ± 0.16	-1.07 ± 0.2
GGACAGCAAUAUUACGGUAG	-1.7 ± 0.061	-1.32 ± 0.073
GCGAAGCAAUAUUACGUUAA	-1.65 ± 0.18	-1.88 ± 0.23
